Results on 10 molecules are retold here after article PMC10524338 (Structure (London, England : 1993), 2023).

Substitutions are numbered along the chain they refer to. Numbers in names are those of the source.

Assay [1] has as its target T1, Karyopherin-β2 (Kapβ2), wild type, GST tag removed (UniProt Q92973-2 1-890).
T1 sequence (looked up): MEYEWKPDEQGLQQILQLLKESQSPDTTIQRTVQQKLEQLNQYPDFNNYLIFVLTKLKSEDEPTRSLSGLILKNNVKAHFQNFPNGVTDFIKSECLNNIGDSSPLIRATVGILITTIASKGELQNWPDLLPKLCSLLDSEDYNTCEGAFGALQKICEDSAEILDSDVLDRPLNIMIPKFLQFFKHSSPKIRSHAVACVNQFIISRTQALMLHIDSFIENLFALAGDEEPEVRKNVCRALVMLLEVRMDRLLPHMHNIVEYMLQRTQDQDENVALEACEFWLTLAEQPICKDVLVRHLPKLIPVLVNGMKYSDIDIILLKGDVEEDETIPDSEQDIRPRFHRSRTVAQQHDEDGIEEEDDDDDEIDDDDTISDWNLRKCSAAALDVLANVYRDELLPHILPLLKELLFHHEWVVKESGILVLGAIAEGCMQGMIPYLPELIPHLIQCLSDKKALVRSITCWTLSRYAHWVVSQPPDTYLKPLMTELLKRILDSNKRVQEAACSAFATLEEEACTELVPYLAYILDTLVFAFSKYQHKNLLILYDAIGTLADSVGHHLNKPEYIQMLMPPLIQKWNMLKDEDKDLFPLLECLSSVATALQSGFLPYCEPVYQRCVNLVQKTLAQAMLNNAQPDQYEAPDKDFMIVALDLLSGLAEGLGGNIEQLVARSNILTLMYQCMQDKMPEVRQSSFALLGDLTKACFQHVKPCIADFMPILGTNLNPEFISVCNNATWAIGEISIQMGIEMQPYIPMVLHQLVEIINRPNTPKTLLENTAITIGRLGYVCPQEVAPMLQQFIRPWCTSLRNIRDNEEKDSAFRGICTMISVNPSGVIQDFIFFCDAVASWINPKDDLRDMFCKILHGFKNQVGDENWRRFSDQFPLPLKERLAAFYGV
In words: ITC.

The target of assay [2] is T2, Kapβ2(W373A), GST tag removed (UniProt Q92973-2 1-890, W373A).
T2 sequence (looked up): T1 sequence (looked up) with W373A
In words: ITC. On the technique in general: Isothermal titration calorimetry measures the heat released or taken up as one component is titrated into another.

For assay [3], the target named is T1, Karyopherin-β2 (Kapβ2), wild type, GST …. In words: cryo-EM structure.
The target in the next assay is T3, GST-Kapβ2 (UniProt Q92973-2 1-890).
T3 sequence (looked up): T1 sequence (looked up)
In words: pull-down.

In the case of ERPAQNEKRKEKNIKRGGNRFEPYANPTKR (domain or fragment, UniProt P52272 41-70, looked up) [MBP-HNRNPM PY-NLS (41-70)], the equilibrium dissociation constant (Kd) in assay [1] turned out to be 0.009 µM; in assay [2] it was 0.0045 µM.

B1: MBP-HNRNPH2(103-225) WT (domain or fragment, UniProt P55795 103-225, looked up)
chain: NSPDTANDGFVRLRGLPFGCSKEEIVQFFSGLEIVPNGMTLPVDFQGRSTGEAFVQFASQEIAEKALKKHKERIGHRYIEIFKSSRAEVRTHYDPPRKLMAMQRPGPYDRPGAGRGYNSIGRG
For B1, the Kd in assay [1] stood at 0.05 µM; in assay [2], 6.1 µM.

B2: HNRNPH2(103-225) as in the cryo-EM sample (domain or fragment, UniProt P55795 103-225, looked up)
chain: B1 chain
modifications: mildly cross-linked to Kapβ2 with 0.025% glutaraldehyde
Turning to B2, the binding result in assay [3] is “binds”.

B3: MBP-HNRNPH2(103-225) R212K (domain or fragment, UniProt P55795 103-225, looked up)
chain: B1 chain with R110K
For the molecule B3, in the assay with GST-Kapβ2, the binding result is “binds”.

B4: MBP-HNRNPH2(103-225) P209L (domain or fragment, UniProt P55795 103-225, looked up)
chain: B1 chain with P107L
In the case of B4, the Kd in assay [1] was found to be 16.3 µM.

B5: MBP-HNRNPH2(103-225) P213A (domain or fragment, UniProt P55795 103-225, looked up)
chain: B1 chain with P111A
For the molecule B5, the binding result with GST-Kapβ2 is “binds”.

B6: MBP-HNRNPH2(103-225) R212A (domain or fragment, UniProt P55795 103-225, looked up)
chain: B1 chain with R110A
For B6, the dissociation constant Kd in assay [1] stood at 3.2 µM.

B7: MBP-HNRNPH2(103-225) R206Q (domain or fragment, UniProt P55795 103-225, looked up)
chain: B1 chain with R104Q
Turning to B7, the affinity in assay [1], expressed as Kd, was 3.6 µM.

B8: MBP-HNRNPH2(103-225) R206W (domain or fragment, UniProt P55795 103-225, looked up)
chain: B1 chain with R104W
The molecule B8 showed a Kd in assay [1] of 5.2 µM.

Molecule EVRTHYDPPRKLMAMQRPGPYDRPGAGRGYNSIGRG (domain or fragment, UniProt P55795 190-225, looked up) [MBP-HNRNPH2 PY-NLS (190-225)] came in with a Kd in assay [1] of 0.04 µM.

A word on the Kd: it is the concentration at which binding is half-saturated.
